± gives the uncertainty stated by the source.
Assay: self-splicing fitness, log relative to wild type (ln ratio); higher = more splicing; Tetrahymena group I intron in knt gene, E. coli kanamycin selection, DiMSum; sequences stand for … in CUCUCU…GGAGGGAAAAGUUAUCAGGCAUGCACCUGGUAGCUAGUCUUUAAACCAAUAGAUUGCAUCGGUUUAAAAGGCAAGACCGUCAAAUUGCGGGAAAGGGGUCAACAGCCGUUCAGUACCAAGUCUCAGGGGAAACUUUGAGAUGGCCUUGCAAAGGGUAUGGUAAUAAGCUGACGGACAUGGUCCUAACCACGCAGCCAAGUCCUAAGUCAACAGAUCUUCUGUUGAUAUGGAUGCAGUUCACAGACUAAAUGUCGGUCGGGGAAGAUGUAUUCUUCUCAUAAGAUAUAGUCGGACCUCUCCUUAAUGGGAGCUAGCGGAUGAAGUGAUGCAACACUGGAGCCGCUGGGAACUAAUUUGUAUGCGAAAGUAUAUUGAUUAGUUUUGGAGUACUCGUGGUCG
Procedure, shortened: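 Six replicate transformations of E. coli BL21(DE3) with a pET-22b(+) library were grown overnight at 37°C or 30°C. The library randomised all eight P1ex-region intron nucleotides, the intron lying in the knt kanamycin-resistance gene, and plates were LB agar with or without 25 μg/mL kanamycin plus 100 μg/mL carbenicillin, 50 μM IPTG and 0.2% rhamnose. Pooled colonies were amplicon-sequenced on an Illumina HiSeq 2500, and fitness is the DiMSum error-weighted combination of wild-type-normalised replicate fold changes, kanamycin versus none.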

Sequence: AUUGAGCAAUAUUACGCUAG
- self-splicing fitness (ln) (37 °C): -2.2 ± 0.22

Sequence: AUCGAGCAAUAUUACGGCUG
- self-splicing fitness (ln) (30 °C): -1.8 ± 0.24
- self-splicing fitness (ln) (37 °C): -0.221 ± 0.35

Sequence: UGGUAGCAAUAUUACGACGC
- self-splicing fitness (ln) (37 °C): 1.38 ± 0.5

Sequence: AGACAGCAAUAUUACGUGCC
- self-splicing fitness (ln) (30 °C): -0.679 ± 0.12
- self-splicing fitness (ln) (37 °C): -0.815 ± 0.17

Sequence: UCACAGCAAUAUUACGUUAU
- self-splicing fitness (ln) (30 °C): -3.61 ± 0.12
- self-splicing fitness (ln) (37 °C): -2.75 ± 0.12

Sequence: UCAUAGCAAUAUUACGGAAA
- self-splicing fitness (ln) (30 °C): -2.84 ± 0.41
- self-splicing fitness (ln) (37 °C): -2.4 ± 0.28

Sequence: UAAAAGCAAUAUUACGGUGC
- self-splicing fitness (ln) (30 °C): -3.65 ± 0.42
- self-splicing fitness (ln) (37 °C): -2.92 ± 0.35

Sequence: GACAAGCAAUAUUACGUUCC
- self-splicing fitness (ln) (30 °C): -3.15 ± 0.24
- self-splicing fitness (ln) (37 °C): -2.8 ± 0.31

Sequence: ACAUAGCAAUAUUACGAUUG
- self-splicing fitness (ln) (30 °C): -2.62 ± 0.1
- self-splicing fitness (ln) (37 °C): -0.942 ± 0.11

Sequence: AUCUAGCAAUAUUACGCAUU
- self-splicing fitness (ln) (30 °C): -1.48 ± 0.1
- self-splicing fitness (ln) (37 °C): -0.414 ± 0.1

Sequence: GCCCAGCAAUAUUACGAUGC
- self-splicing fitness (ln) (30 °C): -0.328 ± 0.055
- self-splicing fitness (ln) (37 °C): 0.257 ± 0.076

Sequence: GUUCAGCAAUAUUACGACCU
- self-splicing fitness (ln) (30 °C): 0.353 ± 0.16
- self-splicing fitness (ln) (37 °C): 0.115 ± 0.17

Sequence: ACUGAGCAAUAUUACGGACG
- self-splicing fitness (ln) (30 °C): -2.2 ± 0.13
- self-splicing fitness (ln) (37 °C): -1.9 ± 0.2

Sequence: GCCCAGCAAUAUUACGUGCC
- self-splicing fitness (ln) (30 °C): -3.75 ± 0.32
- self-splicing fitness (ln) (37 °C): -3.18 ± 0.2

Sequence: AGCUAGCAAUAUUACGGUCU
- self-splicing fitness (ln) (30 °C): -0.425 ± 0.068
- self-splicing fitness (ln) (37 °C): 0.136 ± 0.088

Sequence: UUCGAGCAAUAUUACGCCAG
- self-splicing fitness (ln) (30 °C): -2.94 ± 0.24
- self-splicing fitness (ln) (37 °C): -0.74 ± 0.21

Sequence: GCAGAGCAAUAUUACGGGAC
- self-splicing fitness (ln) (30 °C): -3.3 ± 0.14
- self-splicing fitness (ln) (37 °C): -1.65 ± 0.11

Sequence: AGUGAGCAAUAUUACGUAAU
- self-splicing fitness (ln) (30 °C): -3.13 ± 0.15
- self-splicing fitness (ln) (37 °C): -1.7 ± 0.15

Sequence: GACGAGCAAUAUUACGGUGG
- self-splicing fitness (ln) (30 °C): -3.01 ± 0.16
- self-splicing fitness (ln) (37 °C): -2.77 ± 0.19

Sequence: GAGAAGCAAUAUUACGGGCA
- self-splicing fitness (ln) (30 °C): -0.782 ± 0.1
- self-splicing fitness (ln) (37 °C): -0.441 ± 0.087

Sequence: GUCUAGCAAUAUUACGCCCU
- self-splicing fitness (ln) (30 °C): -0.702 ± 0.36
- self-splicing fitness (ln) (37 °C): -0.472 ± 0.37

Sequence: GCUGAGCAAUAUUACGUCCC
- self-splicing fitness (ln) (30 °C): -0.877 ± 0.092
- self-splicing fitness (ln) (37 °C): -0.184 ± 0.11

Sequence: GGGCAGCAAUAUUACGCUGG
- self-splicing fitness (ln) (30 °C): -3.14 ± 0.14
- self-splicing fitness (ln) (37 °C): -2.53 ± 0.16

Sequence: GAGAAGCAAUAUUACGUGCA
- self-splicing fitness (ln) (30 °C): -0.762 ± 0.084
- self-splicing fitness (ln) (37 °C): -0.666 ± 0.094

Sequence: CACAAGCAAUAUUACGAGCG
- self-splicing fitness (ln) (30 °C): -0.656 ± 0.099
- self-splicing fitness (ln) (37 °C): 0.331 ± 0.1

Sequence: UCCCAGCAAUAUUACGUGCU
- self-splicing fitness (ln) (30 °C): -3.59 ± 0.2
- self-splicing fitness (ln) (37 °C): -2.92 ± 0.19

Sequence: AAGCAGCAAUAUUACGAUUU
- self-splicing fitness (ln) (30 °C): 0.17 ± 0.061
- self-splicing fitness (ln) (37 °C): 0.619 ± 0.079

Sequence: GAGAAGCAAUAUUACGGUAU
- self-splicing fitness (ln) (30 °C): -1.67 ± 0.096
- self-splicing fitness (ln) (37 °C): -1.79 ± 0.17

Sequence: CUCGAGCAAUAUUACGAGCG
- self-splicing fitness (ln) (30 °C): -3.66 ± 0.43
- self-splicing fitness (ln) (37 °C): -2.84 ± 0.25

Sequence: GAAUAGCAAUAUUACGACAU
- self-splicing fitness (ln) (30 °C): -0.389 ± 0.012
- self-splicing fitness (ln) (37 °C): 0.00512 ± 0.033

Sequence: AUGUAGCAAUAUUACGCACA
- self-splicing fitness (ln) (30 °C): -0.084 ± 0.13
- self-splicing fitness (ln) (37 °C): 0.428 ± 0.17

Sequence: CGUGAGCAAUAUUACGGUUA
- self-splicing fitness (ln) (30 °C): -3.15 ± 0.33
- self-splicing fitness (ln) (37 °C): -2.98 ± 0.29

Sequence: GAGUAGCAAUAUUACGUCCU
- self-splicing fitness (ln) (30 °C): 0.0223 ± 0.087
- self-splicing fitness (ln) (37 °C): 0.18 ± 0.15

Sequence: UCUCAGCAAUAUUACGGCUU
- self-splicing fitness (ln) (30 °C): -3.42 ± 0.2
- self-splicing fitness (ln) (37 °C): -3.05 ± 0.18

Sequence: CAUUAGCAAUAUUACGUAGG
- self-splicing fitness (ln) (30 °C): -0.646 ± 0.08
- self-splicing fitness (ln) (37 °C): -0.199 ± 0.11

Sequence: AAAUAGCAAUAUUACGUGGG
- self-splicing fitness (ln) (30 °C): -3.39 ± 0.2
- self-splicing fitness (ln) (37 °C): -2.49 ± 0.2

Sequence: CACGAGCAAUAUUACGCGCU
- self-splicing fitness (ln) (30 °C): -4.22 ± 0.21
- self-splicing fitness (ln) (37 °C): -2.01 ± 0.19

Sequence: AUACAGCAAUAUUACGUCUG
- self-splicing fitness (ln) (30 °C): -2.93 ± 0.083
- self-splicing fitness (ln) (37 °C): -1.4 ± 0.08

Reference: the supplement of paper PMC7877785
